# From PMC3591269
# Molecular target: MINI3 (WRKY10) (Arabidopsis) (UniProt Q9LG05)
# Assay: competition
# Conditions: 25 mM Hepes-KOH pH 7.2, 40 mM KCl, 1 mM DTT, 1 mM EDTA, 10% glycerol, 0.01 uM ZnCl2, 2 ug poly-dIdC, 3 ng probe, 1 ug protein in 20 ul; room temperature …
# Chain of MINI3 (WRKY10) (Arabidopsis) (Q9LG05 whole entry): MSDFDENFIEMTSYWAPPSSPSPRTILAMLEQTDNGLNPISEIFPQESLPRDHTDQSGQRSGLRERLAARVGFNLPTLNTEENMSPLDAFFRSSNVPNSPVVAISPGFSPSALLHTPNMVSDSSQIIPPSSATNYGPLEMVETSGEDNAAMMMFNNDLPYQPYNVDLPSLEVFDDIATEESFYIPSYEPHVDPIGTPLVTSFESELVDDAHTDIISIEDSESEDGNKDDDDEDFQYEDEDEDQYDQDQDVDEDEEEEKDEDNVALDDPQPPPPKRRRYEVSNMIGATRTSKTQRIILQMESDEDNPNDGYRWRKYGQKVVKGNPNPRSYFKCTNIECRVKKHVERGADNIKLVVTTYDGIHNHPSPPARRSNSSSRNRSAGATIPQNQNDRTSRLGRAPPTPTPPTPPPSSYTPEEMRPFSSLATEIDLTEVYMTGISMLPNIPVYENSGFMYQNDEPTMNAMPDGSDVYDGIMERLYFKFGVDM
row,Sequence,binding
1,GACATTACTGTCATCGTATATGAAACATTATTCTAATAATTGTTATAAAAATACCGGAGTTAAACTAGATTGATTATCACCGAGATTTTATATTTGTCAAGATATATAGATGGTCCATCGAAAGGATTGGTGCTTCCAAAACCTTCGATGTCACCTCCTGA (double strand) [W3-box fragment (MINI3 promoter)],binds
2,GACATTACTGTCATCGTATATGAAACATTATTCTAATAATTGTTATAAAAATACCGGAGTTAAACTAGATTGATTATCACCGAGATTTTATATTTGTCTAGATATATAGATGGTCCATCGAAAGGATTGGTGCTTCCAAAACCTTCGATGTCACCTCCTGA (double strand) [mW3-box fragment],binds
